The source of these data is article PMC7897774.

The assay concerns the target HLA-A*02:01. The assay is described as follows: differential scanning fluorimetry. (In DSF a fluorescence change marks the thermal transition of the protein.)

As to “F7A-modified PMEL_(209(2M)–217) epitope (peptide)”, the Tm of the peptide/HLA-A*02:01 complex was 61.7 °C.

As for IMDQVPFSV [PMEL_(209(2M)–217) epitope (…)], the Tm of the peptide/HLA-A*02:01 complex turned out to be 61.9 °C.
